According to patent US20240139251A1 (CYTOARM, published 2024):

B1: anti-CD3 knob/anti-PSMA hole BsAb (bispecific antibody)
light 1: not shown
heavy 1: not shown
light 2: RIVMTQSPSSLSASVGDRVTITCKASQDVGTAVDWYQDKPGKAPKLLIYWASTRHTGVPDRFTGSGSGTDFTLTISSLQPEDFADYFCQQYNSYPLTFGGGTKLEIKRTVAAPSVFIFPPSDEQLKSGTASVVCYLNNFYPREAKVQWKVDNALQSGNSQESVTEQDSKDSTYSLWSTLTLSKADYEKHKLYACEVTHQGLSSPVTKSFNRGECGGGSYPYDVPDYA
heavy 2: not shown
B2: anti-CD3 Fab/anti-PSMA scFv BsAb (bispecific antibody, not shown: small tags and cut ends)
light: not shown
heavy (part 1 of 2): not shown
heavy (part 2 of 2): GGGSGGGEVQLVQSGAEVKKPGASVKISCKTSGYTFTEYTIHWVKQASGKGLEWIGNINPNNGGTTYNQKFEDRATLTVDKSTSTAYMELSSLRSEDTAVYYCAAGWNFDYWGQGTTVTVSSAGGGGSGGGGSGGGGSDIVMTQSPSSLSASVGDRVTITCKASQDVGTAVDWYQQKPGKAPKLLIYWASTRHTGVPDRFTGSGSGTDFTLTISSLQPEDFADYFCQQYNSYPLTFGGGTKLEIKRHHHHHH
B3: anti-PSMA scFv/anti-CD3 scFv BsAb (bispecific antibody, not shown: small tags and cut ends)
chain (part 1 of 2): DIVMTQSPSSLSASVGDRVTITCKASQDVGTAVDWYQQKPGKAPKLLIYWASTRHTGVPDRFTGSGSGTDFTLTISSLQPEDFADYFCQQYNSYPLTFGGGTKLEIKRGGGGSGGGGSGGGGSEVQLVQSGAEVKKPGASVKISCKTSGYTFTEYTIHWVKQASGKGLEWIGNINPNNGGTTYNQKFEDRATLTVDKSTSTAYMELSSLRSEDTAVYYCAAGWNFDYWGQGTTVTVSSA
chain (part 2 of 2): not shown
B4: anti-PSMA Fab/anti-CD3 scFv BsAb (bispecific antibody, not shown: small tags and cut ends)
light: DIVMTQSPSSLSASVGDRVTITCKASQDVGTAVDWYQQKPGKAPKLLIYWASTRHTGVPDRFTGSGSGTDFTLTISSLQPEDFADYFCQQYNSYPLTFGGGTKLEIKRTVAAPSVFIFPPSDEQLKSGTASVVCLLNNFYPREAKVQWKVDNALQSGNSQESVTEQDSKDSTYSLSSTLTLSKADYEKHKLYACEVTHQGLSSPVTKSFNRGEC
heavy (part 1 of 2): EVQLVQSGAEVKKPGASVKISCKTSGYTFTEYTIHWVKQASGKGLEWIGNINPNNGGTTYNQKFEDRATLTVDKSTSTAYMELSSLRSEDTAVYYCAAGWNFDYWGQGTTVTVSSASTKGPSVFPLAPSSKSTSGGTAALGCLVKDYFPEPVTVSWNSGALTSGVHTFPAVLQSSGLYSLSSVVTVPSSSLGTQTYICNVNHKPSNTKVDKRVEPKSCDK
heavy (part 2 of 2): not shown

Legend:
[1] = target: T1, prostate specific membrane antigen (PSMA) on LNCaP cells (human, UniProt Q04609 1-750); assay: cell-based or functional assay
[2] = target: T1, prostate specific membrane antigen …; assay: cell-based or functional assay; remark: listed apart in the source

Binder	Cytotoxic effect of BsAb T cells on LNCaP cells, Effect cell/Target cell 3:1 [1]	Cytotoxic effect of BsAb T cells on LNCaP cells, Effect cell/Target cell 5:1 [1]	Cytotoxic effect of BsAb T cells on LNCaP cells, Effect cell/Target cell 10:1 [1]	Cell killing of LNCaP cells by T cells of Example 2 further modified with BsAb, E/T ratio 10:1 [2]	Cytotoxicity on LNCaP cells of T cells differentiated by BsAb, E/T ratio 5:1 [2]	Cytotoxicity on LNCaP cells of T cells differentiated by BsAb, E/T ratio 10:1 [2]	Cytotoxicity on LNCaP cells of T cells differentiated by and further modified with BsAb, E/T ratio 5:1 [2]	Cytotoxicity on LNCaP cells of T cells differentiated by and further modified with BsAb, E/T ratio 10:1 [2]	Cell killing of LNCaP cells by murine OKT3 T cells modified with BsAb, E/T ratio 10:1 [2]
B1	43.1%	58.6%	70.4%	> 90%					
B2	30.3%	62.6%	82.2%	> 90%	~51.3%	~61%	~78.2%	~81.8%	
B3	53.8%	83.4%	97.6%	> 90%					
B4	64.8%	87%	97.3%	> 90%					~100%
